Results as given in paper PMC6114939.

Columns and labels:
p85α [1] = biological target: p85α (UniProt P27986); test: co-immunoprecipitation, immunoblot; details: sites Y64
p85α [2] = biological target: p85α (UniProt P27986); test: His beads pull-down after kinase assay; details: reference: WT His-PFKP with GST-EGFR; sites Y64

## PFKP (platelet isoform of phosphofructokinase 1) (from UniProt Q01813) Flag-rPFKP Y64F
p85α [1]; reference: WT Flag-rPFKP
  binding against the reference: lost

## PFKP (platelet isoform of phosphofructokinase 1) (from UniProt Q01813) His-PFKP Y64F with GST-EGFR
p85α [2]
  binding against the reference: lost

## PFKP (platelet isoform of phosphofructokinase 1) (from UniProt Q01813) Y64F
p85α [1]; reference: wild-type tagged PFKP (presumed)
  binding against the reference: lost
